Measurements reported in patent US20090012268A1 (B R A H M S, published 2009).
Where “and” joins values, the source holds several entries; their conditions need not be identical. Equal values may be shown once.

Tests used:
[1] = molecular target: T1, recombinant human TSHr preparation immobilized on coated tubes (human, UniProt P16473 21-764, limits assumed); assay: saturation with acridinium ester labelled antibody on hTSHr coated tubes; Kd2 of a biphasic curve
T1 construct: also called hTSHr coated tubes; TSHr coated tubes
Experimental: (§1) 5 ng (−200 000 RLU) of acridinium ester labelled monoclonal antibody (20) and different amounts of unlabeled antibodies were added in 0.3 ml of buffer A to TSHr coated tubes. Tubes were incubated for 24 h at room temperature, washed four times with 2 ml washing buffer, and RLU were measured in a luminometer.
(§2) The purified antibodies were subsequently labelled with acridinium ester and used in saturation experiments on hTSHr coated tubes.

[2] = molecular target: human TSH receptor expressed on cells (human, UniProt P16473 21-764); assay: cell-based or functional assay
mouse TSHr = mouse TSHr (mouse, UniProt P47750 22-764); assay: cell-based or functional assay
[3] = molecular target: T1, recombinant human TSHr preparation …; assay: saturation with acridinium ester labelled antibody on hTSHr coated tubes; Kd1 of a biphasic curve
Experimental: as §1, §2

[4] = molecular target: T1, recombinant human TSHr preparation …; assay: displacement of 50% of 125I-labeled TSH from TSHr coated tubes
Experimental: Selected mAbs and Fabs (generated after papain digestion) were purified by Sepharose-protein A affinity chromatography (ImmunoPure™ Fab preparation Kit, Pierce, Perbio Science, Belgium) and tested for their ability to stimulate cAMP production using JP26 CHO cells in normal isotonic medium (see above). For TBII activity determination, different amounts of antibodies were added in 250 μl of buffer A (20 mM Hepes-NaOH, pH 7.5, 50 mM NaCl, 1% BSA, 10% glycerol, 2 mg/ml mouse IgG) to hTSHr coated tubes. […] The tubes were incubated for 2 h at room temperature, washed four times with 2 ml washing buffer (8 mM Tris-Hl, 60 mM NaCl, 0.02% Tween-20, pH 7.5), and bound radioactivity was counted.

mouse TSHr, sequence (P47750 22-764): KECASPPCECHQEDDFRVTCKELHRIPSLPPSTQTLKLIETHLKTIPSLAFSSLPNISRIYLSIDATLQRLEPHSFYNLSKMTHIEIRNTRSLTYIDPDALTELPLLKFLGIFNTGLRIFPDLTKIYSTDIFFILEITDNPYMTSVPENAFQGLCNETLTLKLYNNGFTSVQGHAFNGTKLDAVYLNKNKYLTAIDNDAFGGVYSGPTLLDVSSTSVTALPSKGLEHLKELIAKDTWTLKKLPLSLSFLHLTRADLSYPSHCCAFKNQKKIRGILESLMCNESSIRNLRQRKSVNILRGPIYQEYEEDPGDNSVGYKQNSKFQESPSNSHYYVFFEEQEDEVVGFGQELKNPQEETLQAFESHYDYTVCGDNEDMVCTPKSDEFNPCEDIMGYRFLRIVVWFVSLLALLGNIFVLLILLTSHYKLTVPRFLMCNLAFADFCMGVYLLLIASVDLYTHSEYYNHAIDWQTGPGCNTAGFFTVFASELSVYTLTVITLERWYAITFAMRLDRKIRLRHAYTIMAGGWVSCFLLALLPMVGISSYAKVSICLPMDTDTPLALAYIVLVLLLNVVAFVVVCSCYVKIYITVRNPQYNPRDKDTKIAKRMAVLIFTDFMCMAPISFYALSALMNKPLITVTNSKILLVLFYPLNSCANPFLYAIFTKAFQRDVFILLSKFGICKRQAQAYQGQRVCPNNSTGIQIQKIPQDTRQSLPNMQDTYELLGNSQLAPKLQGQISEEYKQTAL

Row | Binder | EC50 of cAMP production in MT3 cells, normal-salt medium (mouse TSHr) | EC50 of cAMP production in JP26 cells (Fab) [2] | also measured
1 | IRI-SAb2 (antibody, IgG2a, V domains shown, Mouse monoclonal IgG2a from a hybridoma; also called mAb IRI-SAb2; DSM ACC2664) VH: SCKASGYSFTAYTMNWVKQSHGKNLEWIGLINPFNGGTNYNQKFEGKATLTVDKSSTTAYMELLSLTSEDSAVYYCARRVWDYFDYWGQGTSLTVSS VL: EGSITCKASQNVGTNVAWYQQKGGQSLELLIYGASNRHTGVPDRFTGRGSGTDFTLTITNVQSEDMTNYFCEQYSRYPLTFGAG | 1.3 nM | – | Kd [1]: 1.23 nM; EC50 of cAMP production in JP26 cells, normal salt medium (IgG) [2]: 2.75 nM; Kd [3]: 0.07 nM; IC50 [4]: 0.3 µg/mL and 2 nM
2 | IRI-SAb2 Fab fragment (Fab, V domains shown) VH: SCKASGYSFTAYTMNWVKQSHGKNLEWIGLINPFNGGTNYNQKFEGKATLTVDKSSTTAYMELLSLTSEDSAVYYCARRVWDYFDYWGQGTSLTVSS VL: EGSITCKASQNVGTNVAWYQQKGGQSLELLIYGASNRHTGVPDRFTGRGSGTDFTLTITNVQSEDMTNYFCEQYSRYPLTFGAG | – | 1.2 nM | –

More lines, main results first:

Row | EC50 of cAMP production in MT3 cells, normal-salt medium (mouse TSHr) | EC50 of cAMP production in JP26 cells (Fab) [2] | Binder | also measured
3 | – | 74 nM | IRI-SAb3 Fab fragment (Fab, V domains shown) VH: SCKASGYSFTAYTMNWVKQSHGYNLEWIGLINPYNGGANYNQKFKGKATLTVDKSSSTAYMELLSLTSEDSAVYYCARRVWDYFDYWGQGTTLTVSS VL: EGSITCKASQNVGTNVAWYQQKVGQSLELLIYGASSRHTGVPDRFTGSGSGTDFTLTITDVQSEDMTNYFCEQYSSYPLTFGAG | –
4 | 3.8 nM | – | IRI-SAb3 (antibody, IgG1, V domains shown) VH: SCKASGYSFTAYTMNWVKQSHGYNLEWIGLINPYNGGANYNQKFKGKATLTVDKSSSTAYMELLSLTSEDSAVYYCARRVWDYFDYWGQGTTLTVSS VL: EGSITCKASQNVGTNVAWYQQKVGQSLELLIYGASSRHTGVPDRFTGSGSGTDFTLTITDVQSEDMTNYFCEQYSSYPLTFGAG | –
